Reference: patent publication US7670820B2, “Chitinase and uses thereof” (Academia Sinica, priority 2007, dated 2010)
Where “and” joins values, the source holds several entries; their conditions need not be identical. Identical values can stand only once. Like-named read-outs stand apart in the source and are kept apart here.

Experiments:
[1] = system: CpCHI; format: biochemical, Carica papaya
Experimental: (§1) Chitinase activity was generally measured using glycol chitin as a substrate. All enzymes other than CpCHI, were purchased from Promega (Madison, Wis.). Chemicals were purchased from Merck (Darmstadt, Germany). An enzyme solution (10 μL) was added to 100 μL of 1% (w/v) glycolchitin dissolved in 90 μL of a sodium acetate buffer (100 mM, pH 5.0), and was incubated at 30° C. for 3 hours. The reducing end group produced was measured calorimetrically at 420 nm with 200 μL of a potassium ferricyanide (K3Fe(CN)6) reagent according to the method descried in Boller et al., 1983, Planta. 157, 22-31. Reduced sugar levels were determined relative to N-acetyl-β-D-glucosamine standards of 0-150 μg mL^−1. One unit of chitinase activity is defined as the amount of enzyme producing 1 μmol reducing sugar per minute at 30° C. Substrate and enzyme blanks were also prepared in which the enzyme or substrate was incubated with a buffer. All measured values of absorbency were normalized against appropriate blank absorbencies. In this example, collodial chitin and chitosan were also used as substrate for subtract specificity analysis.
To analyze the effect of metals and other factors on chitinase activity, the enzyme was preincubated with a 10 mM of different metals and inhibitors. After 30 minutes, the remaining chitinase activity was measured in the manner described above.

[2] = system: Phytophthora sp.; experiment: Antifungal activity, growth / hypha extension inhibition; format: cell-based
Experimental: (§2) The antifungal activity of recombinant chitinase protein was assessed by the hypha extension inhibition assay. Sclerotium rolfsii and Phytophthora sp. were provided from Hualien District Agricultural Research and Extension Station. Rhizoctonia solani and Alternaria brassicicola were provided by Dr. Jenn-Wen Hung of the Department of Plant Pathology of National Chung-Hsing University. A disc of each strain of fungus was removed from an actively growing fungal culture, and placed in the center of a fresh potato dextrose agar plate. After incubation at room temperature for 3 to 4 days, the recombinant chitinase or a control buffer (10 mM Tris-HCl pH7.5, 1 mM EDTA) were separately applied into a pool, which was 1 cm from the perimeter. The inhibition of the hypha extension was detected as a crescent-shaped zone of inhibition around the peripheral disc as the fungus grew out from the central disc.
(§3) The effects of recombinant CpCHI on the growth of Phytophthora sp., Sclerotium rolsii, and Rhizoctonia solani were examined using standard methods. Disease resistance assays were carried out using detached leaves of cabbage, bell pepper, and tomato that were inoculated with each of the pathogens. Cabbage (Brassica oleracea), bell pepper (Capsicam annuum), and tomato (Solanum lycopersicum) were obtained from Known-You Seed CO., LTD. An agar plug containing the pathogen was placed on the center of leaves. At day 1 day after inoculation, the detached leaves began to show lesions surrounded by yellow halos. Then, different solutions, including H2O, a TE buffer (10 mM Tris-HCl pH 7.5, 1 mM EDTA), or 5, 10, 15 μM CpCHI in the TE buffer was sprayed onto the leaves. At day 4 after inoculation, the pathogenesis inhibition by 5, 10, or 15 μM CpCHI was about 37%, 83%, and 98%, respectively (Table 3). […] Also, recombinant CpCHI inhibited the growth of these three fungi with as little as 15 μM, and the inhibited activity lasted for 7 days.

[3] = system: Sclerotium rolfsii; experiment: as above; format: cell-based
Experimental: as §2, §3

[4] = system: Rhizoctonia solani; experiment: as above; format: cell-based
Experimental: as §2, §3

[5] = system: Sclerotium rolfsii; experiment: Disease resistance assay on detached leaves; format: in vivo; conditions: for pathogenesis inhibition: day 4 after inoculation
Experimental: as §3

[6] = Chitinase activity with glycol chitin as substrate (colorimetric reducing-sugar assay); format: biochemical
Experimental: as §1
The optimal pH of the chitiolytic activity of CpCHI was determined by incubating the purified recombinant enzyme (5 μg) at different pH (3-10) at 30° C. for 3 hours using glycol chitin as the substrate. An acetate buffer (100 mM) was used for pH 3-5, a phosphate buffer (100 mM) for pH 6˜7, a Tris-HCl buffer (100 mM) for pH 8, and a glycine-NaOH buffer for pH 9 and 10. The optimal temperature was determined by incubating the purified chitinase (5 μg) at different temperatures (10˜90° C.) at pH 6.0 for 3 hours using glycol chitin as the substrate. The highest activity was calculated as relative activity (RA) 100%.

[7] = Chitinase substrate specificity, chitosan as substrate; format: biochemical; conditions: relative to glycol chitin
Experimental: as §1

[8] = Chitinase substrate specificity, collodial chitin as substrate; format: biochemical; conditions: relative to glycol chitin
Experimental: as §1

[9] = HPLC analysis of chitin hydrolysis by CpCHI; format: biochemical
Experimental: Chitin hydrolysis was carried out in a phosphate buffer (100 mM, pH 6) at 30° C. with shaking. The concentrations of chitinase and glycol chitin suspension were 750 ng μL^−1 and 100 μg mL^−1, respectively. The reactions were quenched with 10% (v/v) acetic acid. […] The column was connected to an Agilent Technologies 1100 series HPLC system under the control of a Thermo Finnigan LCQ DECA electrospray mass spectrometer. The mass-to-charge ratios (m/z) of the expected oligosaccharides were selected as follows: Glc-NAc (221.9), (GlcNAc)2 (425.5), (GlcNAc)3 (627.6), (GlcNAc)4 (830.8), (GlcNAc)5 (1034.0), (GlcNAc)6 (1237.2), and (GlcNAc)7 (1440.0).

[10] = system: Alternaria brassicicola; experiment: Inhibition of spore germination; format: cell-based; conditions: 24° C. for 24 hours
Experimental: Assays were also carried out to examine effects of CpCHI on Alternaria brassicicola, a fungus isolated from cabbages. The fungus was cultured in potato dextrose agar (DIFCO) for 2 weeks. After sporulation, the spores of the fungus were suspended in water to a concentration of 10^4 spores mL^−1. A fungal spore stock (approximately 500 spores) was cultured at 24° C. for 24 hours in the following solutions: (A) H2O, (B) TE buffer (10 mM Tris-HCl pH 7.5, 1 mM EDTA), (C) 5 μM CpCHI in TE buffer, and (D) 10 μM CpCHI in TE buffer. The inhibition of spore germination was examined under a light microscope at 200× amplification (Li et al., 2003, Plant Cell Physiol. 44, 1162-1167). The percentage of germination was calculated from 10 different observations. All experiments were conducted in triplicates.

[11] = system: E. coli ED2566; experiment: Antibacterial activity, growth suppression (density at 600 nm); format: cell-based; conditions: E. coli ED2566, LB medium
Experimental: (§4) Experiments were conducted to examine recombinant CpCHI's ability to suppress the growth of E. coli ED2566 or E. coli AD494. Briefly, the E. coli strain was grown at 37° C. in an LB medium with shaking at 225 rpm overnight. Then, the overnight culture was 100× diluted in a fresh LB medium containing 1 μM, 1.5 μM, 2 μM, 2.5 μM, or 3 μM CpCHI. A TE buffer (10 mM Tris-HCl pH7.5, 1 mM EDTA) was used as a control. Changes in density at 600 nm were monitored. The assays were conducts in triplicates and the average were recorded to examine the inhibition of bacterial growth.

[12] = system: E. coli AD494; experiment: as above; format: cell-based; conditions: E. coli AD494, LB medium
Experimental: as §4

[13] = format: physicochemical
Experimental: The pH stability of recombinant CpCHI was determined. Briefly, purified recombinant CpCHI was incubated in buffers with pH from 3.0 to 10.0 at 30° C. for 3 hours. The residual activity was then determined at a standard condition (30° C. for 3 hours at pH 6.0). The results were averaged from three independent experiments.
The stability of recombinant CpCHI during long-term storage was examined. […] The enzyme retained more than 60% of its activity for 3 weeks at 30° C. and more than 50% activity for 3 weeks at 37° C. The results were also averaged from three independent experiments.

[14] = enzyme preincubated 30 minutes with 10 mM reagent

Molecule: O=[N+]([O-])[O-].[Ag+] [AgNO3]
- reduction / inhibition of CpCHI activity ([1]; 10 mM): 16.33%
- Relative activity (%) of CpCHI [1, 14]: 83.67 ± 2.52%

Molecule: [Cl][Fe]([Cl])[Cl] [FeCl3]
- reduction / inhibition of CpCHI activity ([1]; 10 mM): 29.33%
- Relative activity (%) of CpCHI [1, 14]: 70.67 ± 3.06%

Molecule: [Cl][Hg][Cl] [HgCl2]
- reduction / inhibition of CpCHI activity ([1]; 10 mM): completely
- Relative activity (%) of CpCHI [1, 14]: 0%

Molecule: [Cl-].[K+] [KCl]
- reduction / inhibition of CpCHI activity ([1]; 10 mM): 7.67%
- Relative activity (%) of CpCHI [1, 14]: 92.33 ± 1.53%

Molecule: O=C(O)CN(CCN(CC(=O)O)CC(=O)O)CC(=O)O [EDTA]
- Relative activity (%) of CpCHI [1]: 93.33 ± 3.06%
- reduction / inhibition of CpCHI activity [1]: 6.67%

Molecule: O=S(=O)([O-])[O-].[Zn+2] [ZnSO4]
- reduction / inhibition of CpCHI activity ([1]; 10 mM): 62.0%
- Relative activity (%) of CpCHI [1, 14]: 38.00 ± 3.61%

Molecule: O=S(=O)([O-])[O-].[Cu+2] [CuSO4]
- reduction / inhibition of CpCHI activity ([1]; 10 mM): 60%
- Relative activity (%) of CpCHI [1, 14]: 40.00 ± 7.2%

Molecule: [Cl][Mn][Cl] [MnCl2]
- reduction / inhibition of CpCHI activity ([1]; 10 mM): 64.7%
- Relative activity (%) of CpCHI [1, 14]: 35.33 ± 3.06%

B1: CpCHI: novel class IV chitinase from papaya (Carica papaya) fruit, mature form expressed in E. coli and purified on Ni-NTA (protein, listed as Carica papaya)
chain: QNCGCAPNLCCSRFGFCGQGEAYCGEGCREGPCNKPSPTPGGGSSLAEIVTPDFFNGIINQAAAGCAGKSFCSRGGFLDAANSFPEFGKLGSVDDSKREIAAFFAHVTHETGHFCHIEEINGASHDYCDEGNTQYPCAPGKNYFGRGPIQLTWNYNYGAAGDALRLNLLGSPEMVARDAAVSFKTALWFWMKNVRPVINQGFGATIRAINGAIECNGGNPGTVQARIGYYRDYCAKFGVAPGENLSC
- antifungal activity [2]: great antifungal activity
- concentration that inhibited growth [2]: 15 µM
- duration of the inhibited activity ([2]; 15 μM): 7 days
- antifungal activity [3]: great antifungal activity
- concentration that inhibited growth [3]: 15 µM
- duration of the inhibited activity ([3]; 15 μM): 7 days
- antifungal activity [4]: great antifungal activity
- concentration that inhibited growth [4]: 15 µM
- duration of the inhibited activity ([4]; 15 μM): 7 days
- pathogenesis inhibition ([5]; 5 μM): about 37%
- pathogenesis inhibition ([5]; 10 μM): ~83%
- pathogenesis inhibition ([5]; 15 μM): ~98%
- Percentage of the symptom appearing ([5]; Cabbage detached leaves, 5 μM sprayed): 55.33 ± 6.11%
- Percentage of the symptom appearing ([5]; Cabbage detached leaves, 10 μM sprayed): 14.33 ± 5.13%
- Percentage of the symptom appearing ([5]; Cabbage detached leaves, 15 μM sprayed): 1.66 ± 2.88%
- Percentage of the symptom appearing ([5]; bell pepper detached leaves, 5 μM sprayed): 66.67 ± 7.34%
- Percentage of the symptom appearing ([5]; bell pepper detached leaves, 10 μM sprayed): 23.33 ± 7.64%
- Percentage of the symptom appearing ([5]; bell pepper detached leaves, 15 μM sprayed): 3.33 ± 2.77%
- Percentage of the symptom appearing ([5]; tomato detached leaves, 5 μM sprayed): 65 ± 15%
- Percentage of the symptom appearing ([5]; tomato detached leaves, 10 μM sprayed): 13.33 ± 10.41%
- Percentage of the symptom appearing ([5]; tomato detached leaves, 15 μM sprayed): 1.66 ± 1.32%
- broad pH optima ([6]; 30° C., 3 hours, glycol chitin): 5.0-9.0
- optimal pH for the enzyme activity ([6]; 30° C., 3 hours, glycol chitin): 6.0
- optimal temperature for the enzyme activity ([6]; pH 6.0, 3 hours, glycol chitin): 30 °C
- specific activity ([6]; recombinant protein after dialysis, spectrophotometric assay, glycol chitin): 14.8 U mg^−1
- Relative activity toward glycol chitin ([6]; substrate glycol chitin): 100%
- activity maintained at different temperatures ([6]; temperatures between 10-50° C.): at least 80%
- Relative activity toward chitosan [7]: 11% and 11.33 ± 2.52%
- Relative activity toward collodial chitin [8]: 59% and 58.67 ± 5.03%
- hydrolyzed products of glycol chitin ([9]; after 1 hour): (GlcNAc)3
- hydrolyzed products of glycol chitin ([9]; after 2 hours): (GlcNAc)3, (GlcNAc)2, and (GlcNAc)
- hydrolyzed products of glycol chitin ([9]; final products): (GlcNAc)2 and (GlcNAc)
- inhibition of spore germination ([10]; 5 μM): 50%
- inhibition of spore germination ([10]; 10 μM): 98%
- IC50 [11]: ~2500 nM
- IC50 [12]: ~2500 nM
- activity retained during long-term storage ([13]; 3 weeks at 30° C.): more than 60%
- activity retained during long-term storage ([13]; 3 weeks at 37° C.): more than 50%
